Measurements reported in publication PMC7039881.
Blank lines part the entries; values can stand above or below the binder they belong to.

Legend:
[1] = target: N-terminal FLAG-tagged seipin A212P (human) (UniProt Q96G97); experiment: co-IP; HEK293 cells co-transfected, lysed 48 h later in ODG lysis buffer (50 mM n-octyl-β-D-glucopyranoside, 50 mM Tris pH 6.8, 150 mM NaCl, 1 mM EDTA); anti-FLAG-agarose beads 2 h at 4 °C, eluted with 3xFLAG peptide; immunoblot for FLAG and Myc
[2] = target: N-terminal FLAG-tagged seipin L91P (human) (UniProt Q96G97); experiment: as above
[3] = target: Seipin-Myc, wild type (human) (UniProt Q96G97); experiment: atomic force microscopy; proteins co-isolated on anti-Myc beads from co-transfected tsA 201 cells, eluted and imaged in tapping mode in air; particle volumes and angles
[4] = target: T1, Myc-tagged human GPAT3 (GPAT3-Myc), Q53EU6; experiment: co-immunoprecipitation (anti-FLAG IP, immunoblot quantification); conditions: chain shown with the change; HEK293 cells; n = 3; parent: est. 1.0; read off a plot
T1 chain: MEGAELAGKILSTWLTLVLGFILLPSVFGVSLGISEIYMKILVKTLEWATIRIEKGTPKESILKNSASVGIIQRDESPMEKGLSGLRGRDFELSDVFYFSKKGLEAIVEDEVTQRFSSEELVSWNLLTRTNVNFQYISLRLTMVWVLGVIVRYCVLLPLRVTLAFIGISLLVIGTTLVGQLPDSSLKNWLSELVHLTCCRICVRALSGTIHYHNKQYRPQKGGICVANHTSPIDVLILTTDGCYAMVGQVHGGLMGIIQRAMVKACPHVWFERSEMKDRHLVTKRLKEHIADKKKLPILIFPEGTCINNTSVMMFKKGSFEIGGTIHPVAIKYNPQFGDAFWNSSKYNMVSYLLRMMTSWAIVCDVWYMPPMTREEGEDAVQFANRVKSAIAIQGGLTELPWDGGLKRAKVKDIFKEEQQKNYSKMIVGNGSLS

reduction of the co-immunoprecipitation against wild-type seipin [1]: 50%
reduction of the co-immunoprecipitation against wild-type seipin [2]: 50%
B1: Myc-tagged human GPAT3 (GPAT3-Myc) (enzyme)
chain: T1 chain

percent of seipin particles decorated by two GPAT3 particles [3]: 10.4%
B2: FLAG-GPAT3 (enzyme)
chain: T1 chain

ratio to parent [4]: 0.84 fold vs WT
B3: N-terminal FLAG-tagged wild-type seipin (WT), Q96G97 T78A (protein)
chain: MVNDPPVPALLWAQEVGQVLAGRARRLLLQFGVLFCTILLLLWVSVFLYGSFYYSYMPTVSHLSPVHFYYRTDCDSSATSLCSFPVANVSLTKGGRDRVLMYGQPYRVTLELELPESPVNQDLGMFLVTISCYTRGGRIISTSSRSVMLHYRSDLLQMLDTLVFSSLLLFGFAEQKQLLEVELYADYRENSYVPTTGAIIEIHSKRIQLYGAYLRIHAHFTGLRYLLYNFPMTCAFIGVASNFTFLSVIVLFSYMQWVWGGIWPRHRFSLQVNIRKRDNSRKEVQRRISAHQPGPEGQEESTPQSDVTEDGESPEDPSGTEGQLSEEEKPDQQPLSGEEELEPEASDGSGSWEDAALLTEANLPAPAPASASAPVLETLGSSEPAGGALRQRPTCSSS
